From the nanobody polyreactivity screen of Harvey et al. (2022)

Experiment: yeast display, Sf9 membrane polyspecificity reagent, FACS + sequencing; frameworks hold sequencing errors
Method in brief: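 Galactose induction of a Saccharomyces cerevisiae BJ5465 synthetic nanobody display library ran 36–48 hours. The cells were then stained for 1 hour at 4 °C with 10% biotinylated, detergent-solubilized Sf9 membrane reagent, pulled down on streptavidin microbeads and FACS-sorted into low and high (top ~1%) gates on expression and reagent-binding fluorescence. Labels for polyreactivity follow the gate of origin.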

Sequence | polyreactivity (PSR sort gate)
QVQLVESGGGLVQAGGSLRLSCAASGSIFWVYAMGWYRPAPGKERELVAGISSGGSTNYADSVKGRCTISRDTAKKTVYLQMNSLKPEDTAVYYCAAVIRTVRERYGYWGQGTQVTVSS | high polyreactivity
QVQLVESGGGLVQAGGSLRLSCSSSGLTLYRYAMGWYRQAPGKERELVAGISWGGGSTYYADSVKGRFTISRDNAKNTVFLQMNSLKPEGNAVYYCAAGRLLYIPRYYYWGQGTQVTVSS | high polyreactivity
QVQLVESGGGLVQAGGSLRLSCAASGSTFVVNAMGWYRQAPGKERELVAAITQSGGSTFYADSVKGRFTISRDNAKNTVYLQMNSLKPEETAVYYWGHGTQVTVSS | low polyreactivity
QVQLVQSGGGLVQAGGSLRLSCAASGRIFVDNAMAWYRQAPGKERELDAGLTTGGSTYYADSVKGRFTISRDNAKNTVYLQMNSLKPEDTAVYYCNARDHALHRDVLYWYGFDYWAQGTQVTVSS | low polyreactivity
QVQLVESGGGLVQAGGSLRLSCAASGSIFAGYAMGWYRQAPGNERELVAAISNRGSSTNYADSVKGRFTISRDNAKITVYLQMNSLKPEDTAVYYCAVGPIRKYDYWGQGTQVTVSS | high polyreactivity
QVQLVESGGGLFQAGGSLRLSCAASGSTLVGNAMGWYRQAPGKERELVATISSSGGSTYYADSVKGRFTISRDNAKNTVYLQMNSLKPEDTGVYYCAARIQWPTWSLYYYWGQGTQVTVSS | high polyreactivity
QVQLVESGGGLVEEGGSLRLSCAASGSIFSANALGWYRQAPGKERELVACITGDGSTNYADSVKGRFTISRDNAKNTVYLQMNSLKPEDTAVYYCAADIGSWYDYWGQGTQVTVSS | low polyreactivity
QVQLVDSGGGLVQAGGSLRISCAASGFIFSSYAMGWSRQAPAKERELVAAISSRGGSTYYADSVKGRFTISRDNAKNTVYLQMNSLKPEDTAVYYCNAYLSPYVQTSRYDDDYWGQGTQVTVSS | high polyreactivity
QVQLQESGGGLVLAGGSLRLSCSASGNIYVYGYKGWYRQAPRKEREFVATIDPGTNTNYADSVKDRFSISRDNAKNSVYLQMKSLKPEDNAVYYCAVEAGSDWPYRYWGLGTQVTVSS | low polyreactivity
QVQLVESGGGLVQAGGSLRLSCAASGSTFAAYVMGWYRQAPGKERELVAAISTSGGRTYYADSVKGRFTISRDNAMNTVYLQMNSLIPEDTAVYYCAKKRINSRKYDYWGQGTQVNVSS | low polyreactivity
QVQLVESGGGLVQAGGSLRLSCAASGRTFGIYAMGWYRPAPGKERELVATISWRGGSTYYADSVKGRFTISRDNAKNTVYLQMNSLKPEDTAVYYCAAGYYPYWGQGTQVTVSS | low polyreactivity
QVQLVESGGGLVQAGGSLRLSCAASGRIFTPYAMGWYRQAPVKERELVAVIRDGSTYYADSVKGRFTISRDNAKNTVDLLMNSLKPEDTAVYYCRYDIWVWWSGAYDYWGQGTQVTVSS | low polyreactivity
QVQIVESGGGLVQAGGSLRISCAASGRTFRWYAMGWYRQAPGKERELVASITWSGGSTYYADSVKGRFTISRDNAKNSVYLQMNSLKPEDTAVYYCAAEKRYTYVGGPFNYWGQGIQVTVSS | high polyreactivity
QVQLVESGGGLVQAGGSLRLSCAASGFIFDVYAMGWYRQAPGKERELVAAISRSGGSTHYADSVKGRFTISRDNAKNTVYLQMNSLKPEDTAVYYCATGIRVGYAKYDYWGQGTQVTVSS | high polyreactivity
QVQLVESGGGLVQAGGSLRLSCDASGRIFYGYAMGWYRQAPGKERELVAAITYIGGTYYADSVKGRFTISRDNAKNTVYLQMNSMKPEDTAVYYCNALYRYLYRSGDFWGQGSQVTVSS | low polyreactivity
QVQLVESGGGLVQAGGSLRLSCAASGSTFDYNTMGWYIQAPGKERELVAAISESGGSTYYADSVKGRFTISRDNAKNTVYLQMNSLKPEDTAVYYCATDDFGGYFGEYDYWGQGTQVTVSS | low polyreactivity
QVHLVDSGGGLVLAGGSLRLSCAASGRNFERYAMGWYRKAPGKERELVAAISSSATRTYYADSVKGRFTISRDNAKNTVYLQMNSLKPEDTAVYYCAAKGAARDGSSEYNYWGQGTQVTVSS | high polyreactivity
QVQLVETGGGLVLAGGSLRLSCAASGSTFRLYAMGWYRQAPGTARELVAAITSGGSTYYADAVKGRFTISRDNAKNTVYLQMNSLKPEDTAVYYCARLAGDSTYWWWLYLITQRDDYWGQGTQVTVSS | low polyreactivity
QVQLVESGGGLVQAGGILRLSCAASGRIFYNYAMGWYRQAPGKERELGAAISGSGGSTYYADSVKGRFTISRDNAKNTVYLQMNSLKPEDTAVYYCSTSGPQYDSRNFDYWGQGTQVTVSS | low polyreactivity
QVQLVESGGGLVQAGGSLRLSCAASGFISYYYAMGWYRQAPGKEREFVAAITSSGGSTRYADSVKGRFTISRDNAKNTVYLQMNSLKPEDTAVYYCAAGNPYFWPYDYWGQGTQVTVSS | low polyreactivity
QVQLVESGGGLVQAGGSLRLSCAASGRTFKKYAMGWYRQAPGKERELVAAISWSGGTTYYADSVKGRFTISRDNAKNTVYLQMNSLKPEDTAVYYCAARVSRTGHGYYYFWGQGTQVTVSS | high polyreactivity

Sequence | polyreactivity (PSR sort gate)
QVQLVESGGGLVQAGGTLRLICAASGRISLRNGMGWYRQAPRKERELVAAITSGSSTDYADSVKGRFTISRDNAKNTVYLQMNSLKPEDTAVYYCAKDLLQSGPGAGRYDYWGQGTQVTVSS | low polyreactivity
QVQLVESGGGLVHAGRSLLLSCAASGRTYRLDAMGWYRQSPGKERELVAAITRGGRTNYADSVKGRFTISRDNAKNTFYLQMNSLKPEDTAVYYCADRYVERPTDYYYWGQGTQVTVSS | low polyreactivity
QVQLVESGGGLVQAGGSLRLICAASGRTFVYYAMGWYRQAPGKERELVAAISGGGSKTYADSVKGRFTISRDNAKYTVYLLMNSLKPEDTAVYYCGKSVWRRYYYWGQGNQVTVSS | high polyreactivity
QVQLVESGGGLVQAGGSLRLSSAASGRIFYRNAMGWCRQAPGKERELVASITSAGRRYYADSVKGRFTISRDNAKNTVYLQMNSLKPEDTAVYYCAVRVAVLLNLYGYWGQGTQVTVSS | low polyreactivity
QVQLVESGGRLVQAGGSLRLSCAASGNIFYYYAMGCYTQAHGKERELVAAISADCGRTYYADSVKGRFTISRDTAKNTVYLQMNSLQPEDTAVYYWNVLGRARTQTRYNYWGQGTQVTVSS | high polyreactivity
QVQLVESGGGLVQAGGSLRLSCAASGYIFVYNAMGWYRQAPGKERELVAAITDGGGSTYADSVKGRFTISRDNAKNTVYLQMNSLKPEDTAVYYCAARYSDTTWYVLYYYWGQGTQVTVSS | low polyreactivity
QVQLVESGGGLVQAGGSLRLSCAASGSTFAYYAMGWYRQAPGKERELVAAITWSGGSTSYADSVKGRFTISRDNAKNTVYLQMNSLKPEDTGVYYCNADDKPLDWREYNYWGQGTQVTVSS | low polyreactivity
QVQLVESGGGLVQAGGSLRLSCAASGRIINDYTMGWYRQAPGKERELVAAITTSTGSTYADSVKGRFTISRDNAKNTVYLQMNSLKPEDTAVYYCAADSRPGKYYEDDSWGQGTQVTVSS | low polyreactivity
QVQLVESGGGLVQAGGSLRLSCAASGRTFDAYAMGWYRQAPGKERELVAAIRRGSSTNYADSVKGRFTISRDNAKNTVYLQMNSLKPEDTAVYYCAARRQWLGIRTGYNYWGQGTQVTVSS | high polyreactivity
QVQLVESGGGLVQAGGSLRLSCAASGFIFGTYAMGWYRQAPGKERELVAAITGSGGDTYYADSVKGRFTISRDNAKNTVYLQMNSLKPEDTAVYYCAAVRPPTPSRRREDYWGQGTQVTVSS | low polyreactivity
QVQLVESGGGLVQAGGSLRLSCAASGFIFTPYAMGWYRQAPGKERELVAAITWRGARTYYADSVKGRFTISRDNAKNTVYLQMNSLKPEDTAVYYCATTFTGYNKEFGYWGQGTQVTVSS | high polyreactivity
QVQLVESGGGLVQAGGSLRLSCAASGIIFRYNTMGWYRQAPGKERELVAAITRSGGSTYYADSVKGRFTISRDNAKNTVYLQMNSLKPEDTAVYYCAAQGYSYRHTAFEYWGQGTQVTVSS | high polyreactivity
QVQLVESGGGLVQAGGSLRLSCAASGSIFRKYVMGWYRQAPGKERELVAVISSGTGTYYADSVKGRFTISRDNAKYTVYLQMNSLKPEDTAVYYCSSKYFGKWYKYYYWGQGTQVTVSS | high polyreactivity
QVQLVESGGGLFQAGGSLRLSCAASGITFAYYAMAWYRQAPGKERELVARISRRGGSTYYADSVKGRFTISRDNAKNTVYLQMNSLKPEDTAVYYCAARVVVPKPYVDGDYWGQGTQVTVSS | high polyreactivity
QVQLVESGGGLVQAGGSLRLSCAASGRTFLYYAMGWYRQSPGKERELVAAINRSGRTYYADSVKGRFTISRDNAKNTVYLQMNSLKPEDTAVYYCAADTRYPYRAYDYWGQGTQVTVSS | high polyreactivity
QVQLVESGGGLVQAGGSLRLSCAASGITFGYNAMGWYRQAPGTEREFVAGISWSGGSTYYADSVKGRFTISRDNAKNTVYLQMNSLKPEDTAVYYCAKLARGGWYGGGRSLSYGYWGQGTQVTVSS | high polyreactivity
QVQLVESGGGLVQAGGSLRLSCAASGRTFSSYTMGWYRQAPGKERELVASITNNGGSTYYADSVKGRFTISRDNEKNTVYLQMNSLKPEDTAGYYCNANSRVGLQDKKPRDYDGYDSWGQGTQVTVSS | low polyreactivity
QVHLHESGGGLVQAGGSLRLSCAASGTISYAGPMGWYRQAPGKEREFVAGIGVGSNTNYADSVKGRYTIIRDNAKNTLYLQKNSLKTEDTAVYYCAVAGYAPLGRPYWGQGTQVTVSS | low polyreactivity
QVQLVESGGGLVQAGGSLRLSCAASGSTFYYNTMGWYRQAPGKDRELVAAITWTGGSTYYADSVKGRFTISRDNAKNTVYLQMNSLKPEDTAVYYCAAVNWRDEIYDYWGQGTQVTVSS | low polyreactivity
QVHLVESGGGLVQAGGSLSLSCDASGYIISSYVMGWYRQAPGKERELVAAISRRGGSTYYADSVKGRFTISRDNAKNTVYLQMNSLIPEDTAVYYCAADGLSGYGSGRYYGMGYCGQGTQVTVSS | high polyreactivity
